Source: publication PMC2914802

Key:
Assay in all cases: steady-state hydrolysis kinetics
Type in all cases: biochemical, Burkholderia lata
Conditions in all cases: Zn2+; pH 8.0
[1] = substrate: CC(=O)N1CCC[C@H]1C(=O)O
[2] = substrate: CCC(=O)N1CCC[C@H]1C(=O)O
[3] = substrate: CCCC(=O)N1CCC[C@H]1C(=O)O

B1: Sgx9260c (Burkholderia lata) (protein)
chain: MTITVLQGGNVLDLERGVLLDHHHVVIDGDRIVEVTDRPVDFPNAQVIDVRGKTVMPGFIDCHVHVLASNANLGANATQPNILAAIRSLPILDAMLSRGFTSVRDAGGADWSLMQAVETGLVSGPRIFPSGKALSQTGGHGDFRPRGDLLEPCSCCFRTGAIARVVDGVEGVRLAVREEIQKGATQIKIMASGGVASPTDPIANTQYSEDEIRAIVDEAEAANTYVMAHAYTGRAIARAVRCGVRTIEHGNLVDEAAAKLMHEHGAFVVPTLVTYDALAKHGAEFGMPPESVAKVASVQQKGRESLEIYANAGVKMGFGSDLLGEMHEFQSGEFRIRAEVLGNLEALRSATTVAAEIVNMQGQLGVVAAGAIADLVVLDGNPLEDIGVVAGQGERVEYVLQRGRIVKAREFRRTMARE
Km [1]: 800 ± 100 µM | kcat [1]: 227 ± 9 s⁻¹ | kcat/Km [1]: 280000 M⁻¹ s⁻¹ | Km [2]: 1900 ± 200 µM | kcat [2]: 141 ± 6 s⁻¹ | kcat/Km [2]: 74000 M⁻¹ s⁻¹ | Km [3]: 2600 ± 300 µM | kcat [3]: 146 ± 6 s⁻¹ | kcat/Km [3]: 56000 M⁻¹ s⁻¹
